Publication PMC4336284

System: T1, GAF (GAGA-binding factor), His-GAF (Drosophila melanogaster), Q08605-2
T1 sequence: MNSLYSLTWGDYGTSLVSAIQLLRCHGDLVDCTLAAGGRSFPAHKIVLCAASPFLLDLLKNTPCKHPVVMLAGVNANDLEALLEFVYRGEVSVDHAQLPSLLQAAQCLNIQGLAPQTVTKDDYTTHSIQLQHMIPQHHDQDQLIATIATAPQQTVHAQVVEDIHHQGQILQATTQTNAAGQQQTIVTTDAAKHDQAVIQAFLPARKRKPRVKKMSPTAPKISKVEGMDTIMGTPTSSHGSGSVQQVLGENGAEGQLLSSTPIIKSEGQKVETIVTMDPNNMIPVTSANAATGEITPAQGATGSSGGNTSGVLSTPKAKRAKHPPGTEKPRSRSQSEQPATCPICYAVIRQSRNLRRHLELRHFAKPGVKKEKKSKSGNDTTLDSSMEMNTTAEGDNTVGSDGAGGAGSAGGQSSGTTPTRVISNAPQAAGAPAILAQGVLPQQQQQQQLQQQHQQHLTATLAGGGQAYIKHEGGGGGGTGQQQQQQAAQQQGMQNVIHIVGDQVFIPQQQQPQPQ
Assay: EMSA
Conditions: GAF: band shift buffer of cited ref 25 (composition not given), poly(dI-dC) 10 ng, 4.5% acrylamide Tris/borate/EDTA gel; HSF: 10 ug extract protein, as in ref …

CTGTTCTCGTTGCTTCGAGAGAGCGCGCCTCGAATGTTCGCGAAAAGAGCGCCGGAGTATAAATAGAGGAGCTTCGTCGACGGAGAGTCAA (double strand) [hsp70Aa promoter PCR fragment]
binding: binds
